Results on 4 molecules are retold here after publication PMC9243104 (Nature Communications, 2022).

One data set has as its target RPA1-AB (DBD-A/B) (Homo sapiens, UniProt P27694 181-422). Put plainly: EMSA; + WASp; binding increased; EMSA: 1x Promega E358A gel shift binding buffer (composition not given), 25 ul, 10^5 CPM 32P probe, 10 min 4 C then 20 min room temperature, 6% native PAGE. The note with it: protein: recombinant; label: 32P (T4 PNK); single strand.
The target of another data set is RPA1-FAB (DBD-F/A/B) (Homo sapiens, UniProt P27694 1-422). Described as above. The conditions noted are these: protein: recombinant; label: 32P (T4 PNK); single strand.
Chain of RPA1-FAB (DBD-F/A/B) (P27694 1-422): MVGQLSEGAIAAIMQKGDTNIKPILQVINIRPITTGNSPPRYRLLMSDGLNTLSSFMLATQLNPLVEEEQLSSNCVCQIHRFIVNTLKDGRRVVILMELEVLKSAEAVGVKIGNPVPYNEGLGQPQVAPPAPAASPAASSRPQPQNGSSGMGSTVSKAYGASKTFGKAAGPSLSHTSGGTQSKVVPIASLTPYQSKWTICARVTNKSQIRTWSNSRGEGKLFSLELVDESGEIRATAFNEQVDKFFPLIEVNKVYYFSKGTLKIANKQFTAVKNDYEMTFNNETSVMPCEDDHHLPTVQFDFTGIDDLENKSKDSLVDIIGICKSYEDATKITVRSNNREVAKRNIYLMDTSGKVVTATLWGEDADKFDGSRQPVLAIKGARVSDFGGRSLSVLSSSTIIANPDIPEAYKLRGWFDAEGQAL
Data set [1] has as its target RPA heterotrimer (RPA1-3) (Homo sapiens, UniProt P27694;P15927;P35244 1-616;1-270;1-121). Described as above. The note with it: protein: recombinant; copies: 1;1;1; label: 32P (T4 PNK); single strand.
The target of the next data set is WASp (WT*WASp) (Homo sapiens, UniProt P42768 1-502). The data set can be described thus: EMSA; WASp alone; EMSA: 1x Promega E358A gel shift binding buffer (composition not given), 25 ul, 10^5 CPM 32P probe, 10 min 4 C then 20 min room temperature, 6% native PAGE. The conditions noted are these: protein: recombinant; tags: Flag; label: 32P (T4 PNK); single strand. In general terms: Mobility shift assays separate free from complexed probe on a gel.

For a further data set, the target named is RPA1 (RPA70) (Homo sapiens, UniProt P27694 1-616). Put plainly: EMSA; + WASp; binding increased, maximum at equimolar 25 nM WASp; EMSA: 1x Promega E358A gel shift binding buffer (composition not given), 25 ul, 10^5 CPM 32P probe, 10 min 4 C then 20 min room temperature, 6% native PAGE. The note with it: protein: commercial; label: 32P (T4 PNK); single strand.
Chain of RPA1 (RPA70) (P27694 whole entry): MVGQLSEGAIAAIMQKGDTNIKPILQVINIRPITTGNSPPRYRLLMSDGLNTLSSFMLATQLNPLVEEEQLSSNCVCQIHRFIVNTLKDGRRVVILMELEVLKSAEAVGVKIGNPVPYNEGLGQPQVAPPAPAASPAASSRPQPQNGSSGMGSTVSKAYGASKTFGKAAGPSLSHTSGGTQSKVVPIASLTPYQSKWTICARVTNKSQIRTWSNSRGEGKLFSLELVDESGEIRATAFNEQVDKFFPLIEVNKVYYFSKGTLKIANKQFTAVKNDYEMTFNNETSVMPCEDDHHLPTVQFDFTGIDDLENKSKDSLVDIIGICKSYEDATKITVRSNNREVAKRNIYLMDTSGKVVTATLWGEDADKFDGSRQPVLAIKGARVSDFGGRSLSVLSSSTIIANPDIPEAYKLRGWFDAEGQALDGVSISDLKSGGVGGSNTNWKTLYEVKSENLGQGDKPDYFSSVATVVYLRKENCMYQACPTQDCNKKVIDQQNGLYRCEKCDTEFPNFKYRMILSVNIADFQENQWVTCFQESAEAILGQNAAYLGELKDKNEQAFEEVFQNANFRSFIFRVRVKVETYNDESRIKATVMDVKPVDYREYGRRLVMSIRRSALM

Data set [2] concerns the molecule itself. The data set can be described thus: ELISA; 1 µg of 1st protein coated on a 96-well plate (1 h, 25 °C), blocked with 5% milk in PBS; 2nd protein added at increasing concentrations in blocking buffer (1 h, 25 °C); detected with anti-WASp antibody, OD450; RPA coated alone or after pre-incubation with 1 nM ssDNA. Background: In an ELISA, binding on a coated surface is turned into a signal by an enzyme label.

Chain of RPA heterotrimer (RPA1-3) (P27694 whole entry, chain 1 of 3): as the sequence (P27694 whole entry) above
Chain of RPA heterotrimer (RPA1-3) (P15927 whole entry, chain 2 of 3): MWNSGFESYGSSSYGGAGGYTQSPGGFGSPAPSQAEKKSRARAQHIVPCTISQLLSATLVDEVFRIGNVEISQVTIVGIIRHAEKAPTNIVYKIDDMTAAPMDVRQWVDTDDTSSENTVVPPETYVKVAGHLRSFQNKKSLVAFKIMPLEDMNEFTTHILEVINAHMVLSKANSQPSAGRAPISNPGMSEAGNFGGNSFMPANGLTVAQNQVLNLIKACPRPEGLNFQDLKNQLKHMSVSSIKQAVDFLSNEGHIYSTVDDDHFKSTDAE
Chain of RPA heterotrimer (RPA1-3) (P35244 whole entry, chain 3 of 3): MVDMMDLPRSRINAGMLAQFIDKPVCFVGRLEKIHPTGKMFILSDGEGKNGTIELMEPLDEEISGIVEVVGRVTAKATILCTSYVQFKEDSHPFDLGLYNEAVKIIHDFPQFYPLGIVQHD
Chain of RPA1-AB (DBD-A/B) (P27694 181-422): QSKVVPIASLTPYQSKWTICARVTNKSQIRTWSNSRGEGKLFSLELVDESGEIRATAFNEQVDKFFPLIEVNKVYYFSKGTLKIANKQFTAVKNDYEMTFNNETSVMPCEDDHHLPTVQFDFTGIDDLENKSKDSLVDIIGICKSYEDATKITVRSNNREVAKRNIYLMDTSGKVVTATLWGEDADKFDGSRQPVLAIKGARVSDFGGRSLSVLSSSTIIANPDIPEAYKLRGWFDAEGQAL

B1: XO1 ssDNA 61-mer (ssDNA)
DNA: GACGCTGCCGAATTCTACCAGTGCCTTGCTAGGACATCTTTGCCCACCTGCAGGTTCACCC
As for B1, the binding result in the data set with RPA1-AB (DBD-A/B) was “binds”; with RPA1-FAB (DBD-F/A/B) it was “binds”; in data set [1] it was “binds”; in the data set with WASp (WT*WASp) it was “no binding”; in the data set with RPA1 (RPA70) it was “binds”.

B2: Recombinant human ΔRBM1*WASp (WASp mutant lacking the RPA1-binding motif, aa 493-502) (natural protein, UniProt P42768 1-502, looked up)
chain: MSGGPMGGRPGGRGAPAVQQNIPSTLLQDHENQRLFEMLGRKCLTLATAVVQLYLALPPGAEHWTKEHCGAVCFVKDNPQKSYFIRLYGLQAGRLLWEQELYSQLVYSTPTPFFHTFAGDDCQAGLNFADEDEAQAFRALVQEKIQKRNQRQSGDRRQLPPPPTPANEERRGGLPPLPLHPGGDQGGPPVGPLSLGLATVDIQNPDITSSRYRGLPAPGPSPADKKRSGKKKISKADIGAPSGFKHVSHVGWDPQNGFDVNNLDPDLRSLFSRAGISEAQLTDAETSKLIYDFIEDQGGLEAVRQEMRRQEPLPPPPPPSRGGNQLPRPPIVGGNKGRSGPLPPVPLGIAPPPPTPRGPPPPGRGGPPPPPPPATGRSGPLPPPPPGAGGPPMPPPPPPPPPPPSSGNGPAPPPLPPALVPAGGLAPGGGRGALLDQIRQGIQLNKTPGAPESSALQPPPQSSEGLVGALMHVMQKRSRAIHSSDEGEDQAG
notes: also called RBM1-deleted WASp mutant; source: E. coli DE3 (pET30a-∆RBM1*WASp), purified using Flag-tag; commercially produced by GenScript
For the molecule B2, the binding result in data set [2] is recorded as “binds”.

B3: Recombinant human WT*WASp (Wiskott-Aldrich syndrome protein) (natural protein, UniProt P42768 1-502, looked up)
chain: MSGGPMGGRPGGRGAPAVQQNIPSTLLQDHENQRLFEMLGRKCLTLATAVVQLYLALPPGAEHWTKEHCGAVCFVKDNPQKSYFIRLYGLQAGRLLWEQELYSQLVYSTPTPFFHTFAGDDCQAGLNFADEDEAQAFRALVQEKIQKRNQRQSGDRRQLPPPPTPANEERRGGLPPLPLHPGGDQGGPPVGPLSLGLATVDIQNPDITSSRYRGLPAPGPSPADKKRSGKKKISKADIGAPSGFKHVSHVGWDPQNGFDVNNLDPDLRSLFSRAGISEAQLTDAETSKLIYDFIEDQGGLEAVRQEMRRQEPLPPPPPPSRGGNQLPRPPIVGGNKGRSGPLPPVPLGIAPPPPTPRGPPPPGRGGPPPPPPPATGRSGPLPPPPPGAGGPPMPPPPPPPPPPPSSGNGPAPPPLPPALVPAGGLAPGGGRGALLDQIRQGIQLNKTPGAPESSALQPPPQSSEGLVGALMHVMQKRSRAIHSSDEGEDQAGDEDEDDEWDD
notes: human WASp, codon-optimized WAS gene cloned into the NdeI-HindIII site of pET30a; also called wild-type WASp; native purified human WASp; source: E. coli DE3 (pET30a-WT*WASp), purified using Flag-tag; commercially produced by GenScript
As to B3, the binding result in data set [2] was “binds”.

B4: ssRNA 61-mer (ssRNA)
RNA: GACGCUGCCGAAUUCUACCAGUGCCUUGCUAGGACAUCUUUGCCCACCUGCAGGUUCACCC
As for B4, in the data set with WASp (WT*WASp), the binding result was “no binding”.
